Earlier results on 1 substance are cited in paper PMC6438182.

This series has as its target GATAD2A coiled-coil (Homo sapiens) (UniProt Q86YP4).
Chain of UniProt Q86YP4 (Q86YP4 137-178): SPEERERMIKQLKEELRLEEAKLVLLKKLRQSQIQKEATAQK

Regarding MBD2 coiled-coil (from UniProt Q9UBB5), the Kd (commonly the free concentration of one partner at which half of the binding sites on the other are occupied at equilibrium, for simple one-to-one binding) was 42 nM.
